The results in this text go back to IntAct's records for PubMed 22037600.

Sequences and labels used below:
B1: Endoribonuclease ZC3H12A (Mus musculus), Q5D1E7 (parent)
chain: MSDPCGTKPVQESNPTMSLWSLEDRHSSQGRPQPDQDPVAKEAPTSELQMKVDFFRKLGYSSSEIHSVLQKLGVQADTNTVLGELVKHGSATERECQALTAPSPQPPLVPRGGSTPKPSTLEPSLPEEDREGSDLRPVVIDGSNVAMSHGNKEVFSCRGILLAVNWFLERGHTDITVFVPSWRKEQPRPDVPITDQHILRELEKKKILVFTPSRRVGGKRVVCYDDRFIVKLAFESDGVVVSNDTYRDLQGERQEWKRFIEERLLMYSFVNDKFMPPDDPLGRHGPSLDNFLRKKPLPSEHRKQPCPYGKKCTYGIKCRFFHPERPSRPQRSVADELRANALLSPPRTPVKDKSSQRPSPASQSSSVSLEAEPGSLDGKKLGARSSPGPHREGSPQTCAPAGRSLPVSGGSFGPTEWLAHTQDSLPYTSQECLDSGIGSLESQMSELWGVRGGSPGESGPTRGPYAGYHSYGSKVPAAPSFSPFRPAMGAGHFSVPTDYVPPPPTYPSREYWSEPYPLPPPTPVLQEPQRPSPGAGGGPWGRVGDLAKERAGVYTKLCGVFPPHLVEAVMRRFPQLLDPQQLAAEILSYKSQHLSE
partner: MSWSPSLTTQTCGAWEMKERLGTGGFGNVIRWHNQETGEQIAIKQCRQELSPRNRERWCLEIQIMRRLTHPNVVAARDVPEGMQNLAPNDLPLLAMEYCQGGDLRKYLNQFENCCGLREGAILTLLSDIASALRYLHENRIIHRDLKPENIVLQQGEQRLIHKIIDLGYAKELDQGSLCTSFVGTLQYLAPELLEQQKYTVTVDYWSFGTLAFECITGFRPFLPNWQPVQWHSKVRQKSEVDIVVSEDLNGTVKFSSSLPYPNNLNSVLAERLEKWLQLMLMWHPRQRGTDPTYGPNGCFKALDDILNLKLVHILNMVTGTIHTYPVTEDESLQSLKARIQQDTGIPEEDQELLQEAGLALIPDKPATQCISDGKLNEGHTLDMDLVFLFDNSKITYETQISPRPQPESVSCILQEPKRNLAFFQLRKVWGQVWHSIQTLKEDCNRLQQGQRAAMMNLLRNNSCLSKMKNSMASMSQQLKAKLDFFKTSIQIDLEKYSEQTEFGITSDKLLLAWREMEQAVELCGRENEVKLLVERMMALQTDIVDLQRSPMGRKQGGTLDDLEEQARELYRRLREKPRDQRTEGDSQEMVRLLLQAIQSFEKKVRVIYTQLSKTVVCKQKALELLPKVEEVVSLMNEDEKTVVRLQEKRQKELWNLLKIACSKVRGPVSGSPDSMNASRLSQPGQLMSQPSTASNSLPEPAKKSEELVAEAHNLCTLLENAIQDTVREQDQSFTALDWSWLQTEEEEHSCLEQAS

Variants of B1 are the subject of the assay. The following applies: with ikkb_human IKBKB.
On to MSDPCGTKPVQESNPTMSLWSLEDRHSSQGRPQPDQDPVAKEAPTSELQMKVDFFRKLGYSSSEIHSVLQKLGVQADTNTVLGELVKHGSATERECQALTAPSPQPPLVPRGGSTPKPSTLEPSLPEEDREGSDLRPVVIDGSNVAMSHGNKEVFSCRGILLAVNWFLERGHTDITVFVPSWRKEQPRPDVPITDQHILRELEKKKILVFTPSRRVGGKRVVCYDDRFIVKLAFESDGVVVSNDTYRDLQGERQEWKRFIEERLLMYSFVNDKFMPPDDPLGRHGPSLDNFLRKKPLPSEHRKQPCPYGKKCTYGIKCRFFHPERPSRPQRSVADELRANALLSPPRTPVKDKSSQRPSPASQSSSVSLEAEPGSLDGKKLGARSSPGPHREGSPQTCAPAGRSLPVSGGSFGPTEWLAHTQDSLPYTSQECLDSGIGALESQMSELWGVRGGSPGESGPTRGPYAGYHSYGSKVPAAPSFSPFRPAMGAGHFSVPTDYVPPPPTYPSREYWSEPYPLPPPTPVLQEPQRPSPGAGGGPWGRVGDLAKERAGVYTKLCGVFPPHLVEAVMRRFPQLLDPQQLAAEILSYKSQHLSE [S439A], for which the “effect of a mutation on the interaction” value is “decreasing interaction”.
Under MSDPCGTKPVQESNPTMSLWSLEDRHSSQGRPQPDQDPVAKEAPTSELQMKVDFFRKLGYSSSEIHSVLQKLGVQADTNTVLGELVKHGSATERECQALTAPSPQPPLVPRGGSTPKPSTLEPSLPEEDREGSDLRPVVIDGSNVAMSHGNKEVFSCRGILLAVNWFLERGHTDITVFVPSWRKEQPRPDVPITDQHILRELEKKKILVFTPSRRVGGKRVVCYDDRFIVKLAFESDGVVVSNDTYRDLQGERQEWKRFIEERLLMYSFVNDKFMPPDDPLGRHGPSLDNFLRKKPLPSEHRKQPCPYGKKCTYGIKCRFFHPERPSRPQRSVADELRANALLSPPRTPVKDKSSQRPSPASQSSSVSLEAEPGSLDGKKLGARSSPGPHREGSPQTCAPAGRSLPVSGGSFGPTEWLAHTQDSLPYTSQECLDAGIGALESQMSELWGVRGGSPGESGPTRGPYAGYHSYGSKVPAAPSFSPFRPAMGAGHFSVPTDYVPPPPTYPSREYWSEPYPLPPPTPVLQEPQRPSPGAGGGPWGRVGDLAKERAGVYTKLCGVFPPHLVEAVMRRFPQLLDPQQLAAEILSYKSQHLSE [S435A;S439A] stands “decreasing interaction”; under MSDPCGTKPVQESNPTMSLWSLEDRHSSQGRPQPDQDPVAKEAPTSELQMKVDFFRKLGYSSSEIHSVLQKLGVQADTNTVLGELVKHGSATERECQALTAPSPQPPLVPRGGSTPKPSTLEPSLPEEDREGSDLRPVVIDGSNVAMSHGNKEVFSCRGILLAVNWFLERGHTDITVFVPSWRKEQPRPDVPITDQHILRELEKKKILVFTPSRRVGGKRVVCYDDRFIVKLAFESDGVVVSNDTYRDLQGERQEWKRFIEERLLMYSFVNDKFMPPDDPLGRHGPSLDNFLRKKPLPSEHRKQPCPYGKKCTYGIKCRFFHPERPSRPQRSVADELRANALLSPPRTPVKDKSSQRPSPASQSSSVSLEAEPGSLDGKKLGARSSPGPHREGSPQTCAPAGRSLPVSGGSFGPTEWLAHTQDSLPYTSQECLDAGIGSLESQMSELWGVRGGSPGESGPTRGPYAGYHSYGSKVPAAPSFSPFRPAMGAGHFSVPTDYVPPPPTYPSREYWSEPYPLPPPTPVLQEPQRPSPGAGGGPWGRVGDLAKERAGVYTKLCGVFPPHLVEAVMRRFPQLLDPQQLAAEILSYKSQHLSE [S435A], “decreasing interaction”.
